Measurements reported in publication PMC12739106, “Phosphate deficiency reduces nodule formation through a phosphate starvation response-like protein in Phaseolus vulgaris”.

T1: PvPHR-L7 (formerly PvPHR1) (Phaseolus vulgaris, UniProt B4YEQ7 1-327)
T1 sequence: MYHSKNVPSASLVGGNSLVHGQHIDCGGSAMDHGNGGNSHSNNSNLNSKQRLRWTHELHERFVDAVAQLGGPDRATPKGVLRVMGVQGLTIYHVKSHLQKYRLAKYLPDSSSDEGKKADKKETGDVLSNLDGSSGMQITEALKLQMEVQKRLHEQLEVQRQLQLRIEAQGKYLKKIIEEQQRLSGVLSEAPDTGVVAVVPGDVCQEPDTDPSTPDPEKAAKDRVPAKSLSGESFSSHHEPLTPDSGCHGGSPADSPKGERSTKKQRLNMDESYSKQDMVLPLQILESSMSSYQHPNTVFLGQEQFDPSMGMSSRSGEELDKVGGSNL


Target: T1, PvPHR-L7 (formerly PvPHR1)
Assay: EMSA; poly(dI-dC); outcompeted by unlabeled same-sequence probe (50, 100 or 200 nM); LightShift Chemiluminescent EMSA kit, 1x binding buffer, 50 ng/ul poly(dI-dC), 1 unit protein, 0.1 'mmol' biotin probe, unlabeled competitor 5, 10, 20 'mmol' (legend: 50, 100, 200 nM); salt, pH and temperature not stated
Details: protein: recombinant; tags: His (pDEST17, N-terminal); chain copies: 2; 5' implied by name; blunt

Row | Binder | binding result
1 | PvNIN promoter P1BS probe (dsDNA) DNA 1: CAATTTCATTCTATAGCATATGCAACATTTTAGACAAAATCA DNA 2: TGATTTTGTCTAAAATGTTGCATATGCTATAGAATGAAATTG | binds
2 | PvTML promoter P1BS probe (dsDNA) DNA 1: GAAATTAATATAAAAAGCATATACTAAAATTAAGCATATGTT DNA 2: AACATATGCTTAATTTTAGTATATGCTTTTTATATTAATTTC | binds
